Data: the supplement of paper PMC10567573

B1: NET1 (parent)
chain: RVRPLARVTSLANLISPVRNGAVR

Variants of: B1
Assay: protein stability index of a GFP-peptide fusion (GPS, HEK-293T) (PSI 1-6); higher = more stable
Conditions: c terminus: a fixed tail appended
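Note: lentivirally expressed fusions sorted by FACS into six bins by GFP to DsRed ratio, PSI derived from sequencing read proportions per bin multiplied by bin number.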

Protein stability index of substitutions, site by site:
V8: D 3.63; L 2.65; R 2.92; M 2.79; K 2.6; I 2.38; P 3.1; G 2.32; Y 2.38; W 3.05; C 2.93; F 2.28; A 4.44; H 2.49; S 3.99; Q 2.73; N 2.87; E 3.54; T 3.76
L11: P 3.96; C 2.56; R 3.29; H 2.94; V 3.08; F 3.19; M 3.45; D 3.24; E 3.56; T 3.56; S 3.14; N 3.77; W 1.98; G 3.25; Y 2.43; K 3.21; A 3.98; I 2.83; Q 4.39
A22: P 3.49; Q 3.69; R 3.36; S 3.37; H 3.03; W 1.86; N 3.02; D 3.35; M 2.25; Y 2.54; E 3.52; K 3.36; G 3.18; F 2.4; I 2.76; T 3.46; V 2.75; C 2.92; L 2.62
T9: F 2.85; Q 3.81; M 2.66; H 2.75; W 3.24; P 2.74; D 3.73; S 3.45; L 2.09; G 3.68; C 3.08; A 2.81; V 2.96; E 2.87; Y 3.12; N 3.38; I 1.84; K 3.69; R 2.76
I15: Y 3.27; F 2.76; V 3.39; W 2.47; H 4.02; L 3.03; C 2.76; D 3.65; Q 3.66; E 4.08; P 3.31; R 3.56; N 3.97; A 4.27; M 3.29; S 3.63; T 3.5; G 3.6; K 3.27
S10: D 2.54; N 3.08; V 3.11; W 1.99; K 2.41; C 1.62; Q 3.42; M 1.78; E 3; F 1.46; H 2.54; R 3.06; P 3.01; G 2.52; A 2.51; L 1.43; Y 2.04; I 3.84
S16: C 1.25; V 2.99; W 2.55; I 2.44; R 3.03; L 2.49; Q 3.76; P 3.32; H 2.83; K 2.88; F 2.21; T 3.56; G 3.14; N 3.23; M 2.31; E 3.15; Y 2.66; D 2.86; A 3.46
V18: M 3.07; I 2.83; N 3.2; W 2.25; L 2.94; C 2.21; F 2.29; E 3.63; Y 2.23; P 3.12; Q 3.63; S 4.17; D 4.03; H 2.75; K 2.31; A 3.03; T 3.68; R 3.15; G 3.49
R7: V 2.84; N 3.31; Q 3.37; M 2.64; W 2.79; G 3.93; T 3.39; A 3.88; P 3.81; L 2.83; Y 2.77; K 2.26; F 1.85; E 2.5; I 2.43; D 2.84; C 2.39; H 2.71; S 2.78
N20: Q 3.75; E 3.33; T 2.79; C 2.72; Y 2.52; S 2.74; K 2.49; P 2.94; G 2.96; A 2.91; F 2.26; R 2.57; V 2.64; L 3.29; I 2.66; H 3.3; D 3.2; M 2.54; W 2.33
N13: C 1.93; W 1.72; M 1.92; I 2.34; R 3.33; K 2.84; P 3.65; D 3.43; Q 2.52; G 3.05; E 3.22; S 2.65; L 1.98; Y 1.38; T 3.11; A 2.75; V 2.33; F 2.6; H 2.66
R19: H 2.69; N 3.28; F 2.29; W 1.82; M 2.53; I 3.02; L 2.81; C 2.99; P 2.68; G 3.4; V 3.6; Y 2.19; T 3.3; E 3.55; D 3.76; S 3.2; K 2.59; A 2.96; Q 3.06
V23: S 3.4; Q 3.73; M 3.22; C 2.72; A 3.08; F 2.26; H 3.43; L 2.66; R 3.89; I 2.7; T 3.13; E 2.79; D 3.3; G 3.79; W 2.4; K 3.99; N 3.68; P 3.86; Y 2.9
A6: P 3.04; S 2.53; N 2.93; V 3.36; Y 2.02; W 2.35; Q 3.17; R 3.33; T 2.9
G21: L 2.68; A 3.62; I 2.87; D 2.55; W 2.31; Y 2.82; T 3.35; V 2.69; M 2.69; C 2.75; K 2.71; H 2.85; N 2.88; E 3.08; P 3.52; R 2.42; F 2.42; S 3.56; Q 3.12
R24: C 3.21; E 3.8; A 2.98; D 3.37
P17: N 2.81; E 2.4; G 2.14; D 3.03; L 2.03; V 3.16; Y 2.07; H 2.15; C 3.96; S 3.45; A 2.1; R 2.24; K 3.09; I 2.24; Q 2.29; W 1.89; T 2.8; F 1.56; M 2.17
L14: M 2.61; K 3.35; G 3.24; V 2.72; Y 3.17; C 1.66; W 4.15; Q 3.02; P 3.76; N 3.84; I 3.03; S 3.15; F 2.65; R 3.34; A 3.15; H 3.63; T 3.67; E 3.16; D 4.39
A12: N 2.79; Y 2.52; E 3.91; L 2.77; S 3.49; R 2.64; I 2.58; K 2.94; C 2.66; V 2.89; D 3.93; T 3.89; Q 3.71; H 3.27; P 4.28; W 1.83; F 2.14; M 2.42
